Experimental findings from IntAct's records for PubMed 24165923 are described below.

The chains are these.
B1: R-spondin-1 (Homo sapiens), Q2MKA7 (parent)
chain: MRLGLCVVALVLSWTHLTISSRGIKGKRQRRISAEGSQACAKGCELCSEVNGCLKCSPKLFILLERNDIRQVGVCLPSCPPGYFDARNPDMNKCIKCKIEHCEACFSHNFCTKCKEGLYLHKGRCYPACPEGSSAANGTMECSSPAQCEMSEWSPWGPCSKKQQLCGFRRGSEERTRRVLHAPVGDHAACSDTKETRRCTVRRVPCPEGQKRRKGGQGRRENANRNLARKESKEAGAGSRRRKGQQQQQQQGTVGPLTSAGPA

In this test the parent is B1. The conditions noted are these: with znrf3_human ZNRF3, Q9ULT6.
Sequence of znrf3_human ZNRF3, Q9ULT6 (Q9ULT6 whole entry): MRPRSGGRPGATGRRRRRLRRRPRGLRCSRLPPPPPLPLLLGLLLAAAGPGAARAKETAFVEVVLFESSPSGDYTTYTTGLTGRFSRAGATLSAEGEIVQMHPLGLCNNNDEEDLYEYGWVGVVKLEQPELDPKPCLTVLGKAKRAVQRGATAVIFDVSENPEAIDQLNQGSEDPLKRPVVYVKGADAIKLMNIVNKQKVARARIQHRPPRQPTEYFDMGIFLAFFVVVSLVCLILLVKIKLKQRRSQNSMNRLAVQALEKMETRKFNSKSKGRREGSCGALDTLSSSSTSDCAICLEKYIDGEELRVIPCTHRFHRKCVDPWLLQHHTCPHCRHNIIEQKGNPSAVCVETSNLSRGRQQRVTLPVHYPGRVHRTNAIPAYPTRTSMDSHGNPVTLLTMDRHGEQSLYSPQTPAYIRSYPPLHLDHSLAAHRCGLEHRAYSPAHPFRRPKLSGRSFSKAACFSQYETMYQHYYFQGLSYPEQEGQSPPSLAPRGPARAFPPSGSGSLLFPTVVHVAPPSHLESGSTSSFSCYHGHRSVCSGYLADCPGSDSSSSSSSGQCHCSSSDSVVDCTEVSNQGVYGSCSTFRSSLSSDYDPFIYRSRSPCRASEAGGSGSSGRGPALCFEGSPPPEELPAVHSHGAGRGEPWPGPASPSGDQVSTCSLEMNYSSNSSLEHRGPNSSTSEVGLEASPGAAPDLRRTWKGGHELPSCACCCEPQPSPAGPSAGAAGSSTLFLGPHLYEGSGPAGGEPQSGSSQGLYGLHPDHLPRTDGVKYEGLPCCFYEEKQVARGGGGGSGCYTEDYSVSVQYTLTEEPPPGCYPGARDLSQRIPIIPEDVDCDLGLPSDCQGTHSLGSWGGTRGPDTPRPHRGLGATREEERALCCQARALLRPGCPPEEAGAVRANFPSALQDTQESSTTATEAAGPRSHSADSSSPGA
Turning to MRLGLCVVALVLSWTHLTISSRGIKGKRQRRISAEGSQACAKGCELCSEVNGCLKCSPKLFILLEANDIRQVGVCLPSCPPGYFDARNPDMNKCIKCKIEHCEACFSHNFCTKCKEGLYLHKGRCYPACPEGSSAANGTMECSSPAQCEMSEWSPWGPCSKKQQLCGFRRGSEERTRRVLHAPVGDHAACSDTKETRRCTVRRVPCPEGQKRRKGGQGRRENANRNLARKESKEAGAGSRRRKGQQQQQQQGTVGPLTSAGPA [R66A], the “effect of a mutation on the interaction” value is “disrupting interaction”.
